Data from publication PMC6326798.
Where a chain is given by its changes, count along the chain named. Names may count otherwise.

T1: GST-ctCENP-I^NT
T1 chain: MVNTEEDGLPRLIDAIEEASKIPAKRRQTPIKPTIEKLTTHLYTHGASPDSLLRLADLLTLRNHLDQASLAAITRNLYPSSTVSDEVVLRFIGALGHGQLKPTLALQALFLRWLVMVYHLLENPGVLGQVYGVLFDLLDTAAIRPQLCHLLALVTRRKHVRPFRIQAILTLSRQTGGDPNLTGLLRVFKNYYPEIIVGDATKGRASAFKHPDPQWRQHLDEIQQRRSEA

T2: GST-thCENP-K^ΔN75
T2 chain: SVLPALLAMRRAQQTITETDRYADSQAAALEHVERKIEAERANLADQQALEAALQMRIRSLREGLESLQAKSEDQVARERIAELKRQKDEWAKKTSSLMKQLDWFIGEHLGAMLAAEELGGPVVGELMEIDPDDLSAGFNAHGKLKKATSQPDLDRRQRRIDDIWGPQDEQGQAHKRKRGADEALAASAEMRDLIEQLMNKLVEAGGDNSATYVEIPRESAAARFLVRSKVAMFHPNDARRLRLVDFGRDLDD

T3: GST-thCENP-K^FL (full-length T. terrestris CENP-K with N-terminal GST)
T3 chain: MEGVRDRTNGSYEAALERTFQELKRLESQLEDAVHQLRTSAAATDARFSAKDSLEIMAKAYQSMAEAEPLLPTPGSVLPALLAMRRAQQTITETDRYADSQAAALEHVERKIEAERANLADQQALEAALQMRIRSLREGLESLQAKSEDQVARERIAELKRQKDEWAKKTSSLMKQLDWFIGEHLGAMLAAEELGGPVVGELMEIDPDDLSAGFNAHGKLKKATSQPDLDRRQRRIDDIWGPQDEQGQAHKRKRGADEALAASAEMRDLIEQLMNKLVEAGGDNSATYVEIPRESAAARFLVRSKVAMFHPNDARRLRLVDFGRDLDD

B1: full-length T. terrestris CENP-H (thCENP-H) R220E (protein)
chain: MAATASTATPTPLPHFTEREASVLALYDRLRQLQLELALLTSQRSHGVIETSASRRAENDLAVDEARLLEARATLDLRDSVVENVVTLQPILNAVHHATHASPLERDLLPYTEQRDATATKVASLCADLDSAWGRLAELETESLRATQRNMELASEVLRLAAGTNDKTPSQLEGGRLEMELAGHEAEMKSNRRRWRIMKGAASAIVAGSGIDWVRDERLEDLVLDLPD
B2: full-length T. terrestris CENP-H (thCENP-H) I211A (protein)
chain: B1 chain with I211A, E220R
B3: full-length T. terrestris CENP-H (thCENP-H) I205A; L219A (protein)
chain: B1 chain with I205A, L219A, E220R
B4: full-length T. terrestris CENP-H (thCENP-H) I205A (protein)
chain: B1 chain with I205A, E220R
B5: full-length T. terrestris CENP-H (thCENP-H) W213A (protein)
chain: B1 chain with W213A, E220R
B6: full-length T. terrestris CENP-H (thCENP-H) R220E; L224A (protein)
chain: B1 chain with L224A
B7: full-length T. terrestris CENP-H (thCENP-H) I205A; I211A (protein)
chain: B1 chain with I205A, I211A, E220R
B8: full-length T. terrestris CENP-H (thCENP-H) I211A; L219A (protein)
chain: B1 chain with I211A, L219A, E220R
B9: full-length T. terrestris CENP-H (thCENP-H) L224A (protein)
chain: B1 chain with E220R, L224A
B10: full-length T. terrestris CENP-H (thCENP-H) L219A (protein)
chain: B1 chain with L219A, E220R

Target: T1, GST-ctCENP-I^NT
Test: GST pull-down
Settings: chain shown with the change;; parent: est. 1.0; read off a plot

Row | Molecule | ratio to parent
1 | B1 | 0.32
2 | B2 | 1.2
3 | B3 | 1.1
4 | B4 | 1.1
5 | B5 | 1.2
6 | B6 | 0.13
7 | B7 | 1.1
8 | B8 | 1.2
9 | B9 | 0.36

Target: T2, GST-thCENP-K^ΔN75
Test: GST pull-down
Settings: chain shown with the change;; parent: est. 1.0; read off a plot

Row | Molecule | ratio to parent
10 | B10 | 0.68
11 | B1 | 1.1
12 | B2 | 0.7
13 | B3 | 0.36
14 | B4 | 0.65
15 | B6 | 1.1
16 | B7 | 0.33
17 | B8 | 0.46
18 | B9 | 1.1

Target: T3, GST-thCENP-K^FL (full-length T. …)
Test: GST pull-down
Settings: chain shown with the change;; parent: est. 1.0; read off a plot

Row | Molecule | ratio to parent
19 | B10 | 0.89
20 | B1 | 0.97
21 | B2 | 0.95
22 | B3 | 0.9
23 | B4 | 0.94
24 | B5 | 0.97
25 | B7 | 0.88

These molecules were tested against C. thermophilum CENP-I residues 1-229 (ctCENP-I^NT), untagged (assay: GST pull-down). Settings: in the presence of thCENP-K; parent: est. 1.0; read off a plot.

Row | Molecule | ratio to parent
26 | GST-thCENP-H WT R220E; L224A | 0.2
27 | GST-thCENP-H WT I205A; L219A | 0.63

The molecules below were run against thCENP-H/K complex (full-length thCENP-H with full-length thCENP-K) (Thielavia terrestris) (assay: AUC; sedimentation velocity, 4°C, 42 000 rpm, PBS; continuous c(s) model in SEDFIT). Settings: not given.

Row | Molecule | stoichiometry N
28 | C. thermophilum CENP-I residues 1-229 (ctCENP-I^NT), untagged (domain or fragment) | 1

The molecules below were run against full-length T. terrestris CENP-K (thCENP-K) (Thielavia terrestris) in the same assay as above. Settings: not given.

Row | Molecule | stoichiometry N
29 | full-length T. terrestris CENP-H (thCENP-H) (natural protein) | 1
